Measured values as given in the supplement of paper PMC9170038.

Test system: MS2 coat protein
Experiment: apparent KD of MS2 coat protein; designed switch direction (-1 OFF switch, 1 ON switch): -1; higher = weaker reporter binding
Outline: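 For each design, the apparent KD is the median over clusters of curves fitted to normalised cluster fluorescence. Clusters held RNA switches with common flanks, transcribed on Illumina chips by stalled E. coli RNA polymerase. These were titrated with SNAP-549-labelled MS2 coat protein, doubling from 0.7 or 1.5 nM to 3 µM, without input, with 200 uM small-molecule ligand, or with an oligonucleotide input.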

[1] = input ligand: microRNA oligo, concentration not stated
[2] = Eterna round: R95, input ligand: microRNA oligo, concentration not stated
[3] = Eterna round: R95, input ligand: FMN 200 uM
[4] = Eterna round: R95, input ligand: none

| Sequence | apparent KD of MS2 coat protein (input ligand: FMN 200 uM) [µM] | apparent KD of MS2 coat protein (input ligand: none) [µM] | apparent KD of MS2 coat protein [1] [µM] | apparent KD of MS2 coat protein [2] [µM] | apparent KD of MS2 coat protein [3] [µM] | apparent KD of MS2 coat protein [4] [µM] |
| --- | --- | --- | --- | --- | --- | --- |
| UCGCGCCAAGGAUAUACAUGAGGAUCACCCAUGUUGAAAGAAAAGUUGUCCGGUCCCAGUAGAAGGUGGUUCCC [Eternabot (L2) Solution 90] (Eterna round: R97, puzzle: Exclusion 3) | 0.0235 | 0.0584 |  |  |  |  |
| ACAUGAGGAUCACCCAUGUAAUGAAGGGUACUAUAUUAAACGUAGGAUAUCGAUGUAAGUUUGUACGAGAAGGACGAUUGCCUU [JR_ExcNG3_Sub052] (Eterna round: R96, puzzle: Exclusion NG 3) | 0.0482 | 0.0841 | 0.0395 |  |  |  |
| AUAAAUCAUGUAGGAUAUGUGUGGCGAAGCUAUACAGAAGGACAUGAGGAUCACCCAUGUUCUUCCGUCUGCGUACAGACGGAA [11th something] (Eterna round: R96, puzzle: Exclusion NG 1) | 0.228 | 0.029 | 0.0191 |  |  |  |
| AUGGACGCAGGAUAUACAUGAGGAUCACCCAUGUGAGGUAGGUAAGUAGGAAGUGAAGGUAGAAGGGCGAGAGA [JR_Exclu3_Sub096] (puzzle: Exclusion 3) |  |  |  | 0.0594 |  |  |
| AUGUUGCGAGGAUAUAUAAGGAGGUUAAAAUUUAUUAUGGAACAUGAGGAUCACCCAUGUAGAAGGUGCAUAAC [JR_Ex2_Sub038] (Eterna round: R97, puzzle: Exclusion 2) | 0.0496 | 0.0557 |  |  |  |  |
| AUAAAUAAGGAGGAUAUCGUAUCGGAAACGAUACGAGAAGGCCUAACAUGAGGAUCACCCAUGUUCCUUAAAUA [Mat - Exclusion 6 - Eli Mod - D62] (puzzle: Exclusion 6) |  |  |  | 0.0241 | 0.0409 | 0.0216 |
| GAUAAAGGGCAGGAUAUGGCUGGAAAAUAUCCGCCAGAAGGGCCCACAUGAGGAUCACCCAUGUGUGGUCCGCG [Lere] (puzzle: Exclusion 6) |  |  |  | 0.0173 | 0.0523 | 0.0191 |
| UAAAAGGGAGGAUAUACUUGAGGAUCACCCAAGUGAUCCAGACCCUGAACGGUCUAUAGUAGAAGGCCCAAUAA [Teinma] (Eterna round: R97, puzzle: Exclusion 3) | 0.152 | 0.058 |  |  |  |  |
| CGGUGCUGAGGAUAUACAUGAGGAUCACCCAUGUGUGCCAGCUAGCUGACUGGCACUUGUAGAAGGCAGUACUG [JL-ex3-2.13 Brourd mod] (puzzle: Exclusion 3) |  |  |  | 0.0124 |  |  |
| CUCAUGCCUGAGGAUAUGCUGUACAAAAGUACUGCAGAAGGUGGAACAUGAGGAUCACCCAUGUGGCGAAAGCC [Omei Ex G4] (Eterna round: R97, puzzle: Exclusion 6) | 0.253 | 0.0661 |  |  |  |  |
| GGAACGCGAGGAUAUACAAGGCCGGAAACGGAAAUAGCCUCACAUGAGGAUCACCCAUGUAGAAGGCGCGGAGA [AK-MS2ROC-r4-exclusion2-26] (Eterna round: R97, puzzle: Exclusion 2) | 0.175 | 0.0221 |  |  |  |  |
| UAUAACCAAGGAUAUACAUGAGGAUCACCCAUGUAAUAUAAAAUAAAAUAAAUAAAAUGUAGAAGGUGGGAUAU (Eterna round: R97, puzzle: Exclusion 3) | 0.0408 | 0.0376 |  |  |  |  |
| UAUUAGUGAGGAUAUGAGUCGUAGAACAAUAGUACUACGUCUCAGAAGGUACAUGAGGAUCACCCAUGUUCCUC [Fiskers Ex 4 Super Stable 44 mod 32] (puzzle: Exclusion 4) |  |  |  | 0.0189 |  |  |
| UUAUAACAUGAGGAUCACCCAUGUUAGGAUAUCAGGUACGAGCGCCGUGCUCAGGCCCUGAGAAGGAGCAUGGC [Eternabot (L1) Solution 36] (Eterna round: R97, puzzle: Exclusion 1) | 0.0149 | 0.0186 |  |  |  |  |
| GCGCCAUCGUGAGAUGGCGUAACUACAUGAGGAUCACCCAUGUAGGAUAUCGAUUGCUUUGCAGUCGAGAAGGGCAUGGUUUGU [JL ENG3 3.86] (Eterna round: R96, puzzle: Exclusion NG 3) | 0.0561 | 0.0228 | 0.0202 |  |  |  |
| GCAGUGUGAGUUAGGAUAUGAUGAUUUUUUAUUGGUCAGAAGGAACUUGAGGAUCACCCAAGUUAGGAAUUGGU [JR_BMEx4_Sub075] (Eterna round: R97, puzzle: Brourd's mod of Exclusion 4) | 0.0403 | 0.0331 |  |  |  |  |
| UGAUCUAGGCGAGGAUAUACAUGAGGAUCACCCAUGUAAUGGUGACAUGCGUACAUGUCACCUAUGUAGAAGGCGCCUAGAUCU [JL ENG2 3.55] (Eterna round: R96, puzzle: Exclusion NG 2) | 0.0196 | 0.013 | 0.009 |  |  |  |

| Sequence | apparent KD of MS2 coat protein (input ligand: FMN 200 uM) [µM] | apparent KD of MS2 coat protein (input ligand: none) [µM] | apparent KD of MS2 coat protein [1] [µM] | apparent KD of MS2 coat protein [2] [µM] | apparent KD of MS2 coat protein [3] [µM] | apparent KD of MS2 coat protein [4] [µM] |
| --- | --- | --- | --- | --- | --- | --- |
| UACAGUCAUCCUUAUUGUUACAUGAGGAUCACCCAUGUUAGUAUAGUUAAGUUAUGUGAGUUUGUUGUUCGUUUUAU [JR_STOV1_v2_Sub078] (Eterna round: R97, puzzle: Sensor, turn-off variant 1) | 0.125 | 0.146 |  |  |  |  |
| CCGCUCCGUGUAGGAUAUUGGCGUGCCCUGCGCCGAGAAGGACAUGAGGAUCACCCAUGUAUGUUAUUAUCACGCGUGGCGCAU [Design 77] (Eterna round: R96, puzzle: Exclusion NG 1) | 0.0322 | 0.022 | 0.0167 |  |  |  |
| UACAUGAGGAUCACCCAUGUUUUAUCAUGUGUAAUAAUAAUGUAGGAUAUGUAUUAUUUUAUUUAACAGAAGGACAAUAAUAAA [JMF's solution 2] (Eterna round: R96, puzzle: Exclusion NG 3) | 0.426 | 0.524 | 0.467 |  |  |  |
| CGUAGUCUUCGGACUACGAACAUGAGGAUCACCCAUGUAUAGAGCAGAUCUUCAUGCAAGCUUUUUGCUCGUCUUAU [Sensor v3 - turn-off variant 1 - 48] (puzzle: Sensor v3, turn-off variant 1) |  |  |  | 0.0108 | 0.082 | 0.0866 |
| AAGAGUGCAGGAUAUACUUGAUAGGGUAAGGUGAGUGAGGGACAUGAGGAUCACCCAUGUAGAAGGGCAGAGAG [JR_Exclu2_Sub058] (puzzle: Exclusion 2) |  |  |  | 0.0334 | 0.0258 | 0.0263 |
| AAGAUGUGAGGAUAUCACGAAGGCGUCAAACUGACGCCUUCUGAGAAGGCACAUGAGGAUCACCCAUGUCCAAA [EX4 A.23] (Eterna round: R97, puzzle: Exclusion 4) | 0.325 | 0.0586 |  |  |  |  |
| UGAUAGAGCCUAGGAUAUUCGGAUCUACUACAAGGAGAAGGAGGUAGUCGGUGACGAACAUGAGGAUCACCCAUGUCGUCCUUC [Eternabot solution 37] (Eterna round: R96, puzzle: Exclusion NG 1) |  |  | 0.0617 |  |  |  |
| ACUGGUGCAGGAUAUACAUUCGUGCUUCGGCACGUAAGAUCACAUGAGGAUCACCCAUGUAGAAGGGCACCAGU [E2/5-D2] (Eterna round: R97, puzzle: Exclusion 2) | 0.642 | 0.0816 |  |  |  |  |
| ACAAGCUUUAGGCGUGUGAACAUGAGGAUCACCCAUGUAAAGUAGGUUAGGAGGUCUGUAAGGGAUGCUCGUCUUAU [JR_SWV3TOV1_Sub090] (puzzle: Sensor v3, turn-off variant 1) |  |  |  | 0.0455 | 0.0894 | 0.113 |
| AGUAAUUCAAGAGGAUAUCACAUGAGGAUCACCCAUGUAUAGCGCGCUACGCUAGUCCUCGUAUUUGAGAAGGUUUGAUAAAAG [Mat - Exclusion NG 2 - Mod of JL - D76] (Eterna round: R96, puzzle: Exclusion NG 2) | 0.0187 | 0.0175 | 0.0134 |  |  |  |
| AGAAGUAGAAACCGAUCCUACAUGAGGAUCACCCAUGUAGCAAGACGUGCACGCGAAGCUCGUCAGACUACCAGAAC [salish99_TOv1_r3_008] (puzzle: Sensor v3, turn-off variant 1) |  |  |  | 0.264 | 0.229 | 0.421 |
| UUGUUAUAUGUAGGAUAUGCGUGUUAUUAUUAUGCAGAAGGACAUGAGGAUCACCCAUGUGUAUUAUUAUUAUAUAUUAUAUAU [Title] (Eterna round: R96, puzzle: Exclusion NG 1) |  |  | 0.0154 |  |  |  |
| CAUGUGUUAGGAUAUGCACAGAUCUCCUAAUGGAGAUCUGUGCAGAAGGAACAUGAGGAUCACCCAUGUUGAUG [Mod of Brourd 13 - Jieux - Exclusion 4] (Eterna round: R97, puzzle: Exclusion 4) | 0.129 | 0.0354 |  |  |  |  |
| UAACAGUAAGGAUAUCCAGAUCCAGACAUGAGGAUCACCCAUGUCAUAUACCUUUGACACGGAGAAGGUACGAAAA [EX5 A.4] (Eterna round: R97, puzzle: Exclusion 5) | 0.0523 | 0.0522 |  |  |  |  |
| GGUGUUGAAGGAUAUACAUGAGGAUCACCCAUGUACCGCUCGGACAAGAUAUCAUUCAGUAGAAGGUCGGACCG [Eternabot (L2) Solution 11] (Eterna round: R97, puzzle: Exclusion 3) | 0.0665 | 0.15 |  |  |  |  |
| CUUGUACAUGAGGAUCACCCAUGUUAGGAUAUCUCGCCGUCGGCUUGCCGACGGUAUUAGAGAAGGGACUAGGG [JL Tixe mod 5] (puzzle: Exclusion 1) |  |  |  | 0.0388 |  |  |
| UCGUGGUAAAUCAGAAGUUUCCUGAGCGGAGGAACUUUGACAUGAGGAUCACCCAUGUUGCUUUUUGCUCAUCUUAA [JR_SV3TOV2_Sub043] (puzzle: Sensor v3, turn-off variant 2) |  |  |  | 0.0418 | 0.0153 | 0.0129 |
